Experiment [1] concerns the target T1, cynomolgus 4-1BB on CHO cells (cynomolgus, UniProt A9YYE7 24-254).
T1 construct: also called Flp-In-CHO::cyno4-1BB; cynomolgus 4-1BB-expressing CHO cells
The experiment can be described thus: flow cytometry, Flp-In-CHO::cyno4-1BB cells. In short, it runs like this: (§1)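 Flp-In CHO cells stably expressing human or cynomolgus 4-1BB (mock-transfected control), 5×10⁴/well, incubated 1 h on ice with dilution series of test proteins. Binding detected with rabbit anti-NGAL or Alexa 488 anti-human IgG (30 min, ice); geometric mean fluorescence fitted by four-parameter nonlinear regression.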

For experiment [2], the target named is T2, human 4-1BB on cells (human, UniProt Q07011 24-255). Description: cell-based or functional assay.
For experiment [3], the target named is T3, huGPC3-His (human GPC3 with C-terminal polyhistidine tag, R&D Systems) (human, UniProt P51654 25-559, limits assumed).
T3 construct: Bought; not shown: C-terminal polyhistidine tag
Description: ELISA, huGPC3-His coated, detection anti-NGAL-HRP. The method, then:
Recombinant hu4-1BB-His (human 4-1BB with a C-terminal polyhistidine tag, R&D Systems) at the concentration of 1 μg/mL in PBS was coated overnight on microtiter plates at 4° C. After washing with PBS-0.05% T (PBS supplemented with 0.05% (v/v) Tween 20), the plates were blocked with 2% BSA (w/v) in PBS-0.1% T (PBS supplemented with 0.1% (v/v) Tween 20) for 1 h at room temperature. After washing with 100 μL PBS-0.05% T five times, exemplary multimeric proteins (SEQ ID NOs: 38-44 and 46-53) or 4-1BB-specific lipocalin mutein as included in the multimeric protein (SEQ ID NO: 64) at different concentrations, ranging from 100 to 0.002 nM, were added to the wells and incubated for 1 h at room temperature, followed by another wash step. Bound molecules under study were detected by incubation with 1:1000 diluted anti-NGAL-HRP in PBS-0.1% T-2% BSA. After an additional wash step, fluorogenic HRP substrate (QuantaBlu, Thermo) was added to each well and the fluorescence intensity was detected using a fluorescence microplate reader.
The same ELISA setup was also employed to determine the binding potency of exemplary bispecific multimeric proteins (SEQ ID NO: 54 and SEQ ID NO: 55) to GPC3, where huGPC3-His (human GPC3 with C-terminal polyhistidine tag, R&D Systems) was instead coated on a microtiter plate. The testing agents were similarly titrated and bound agents detected.

The target of experiment [4] is T2, human 4-1BB on cells. Description: flow cytometry, Flp-In-CHO::hu4-1BB cells. In short, it runs like this:
as §1
(In general: A flow cytometer gives signals particle by particle.)

The target in experiment [5] is T3, huGPC3-His (human GPC3 with C-terminal …). The experiment can be described thus: dual-binding ELISA, huGPC3-His coated, detection with biotinylated hu4-1BB-His and Extravidin-HRP. The method, then: Recombinant huGPC3-His (human GPC3 with C-terminal polyhistidine tag, R&D Systems) at the concentration of 1 μg/mL in PBS was coated overnight on microtiter plates at 4° C. After washing with PBS-0.05% T (PBS supplemented with 0.05% (v/v) Tween 20), the plates were blocked with 2% BSA (w/v) in PBS-0.1% T (PBS supplemented with 0.1% (v/v) Tween 20) for 1 h at room temperature. After washing with 100 μL PBS-0.05% T five times, exemplary multimeric proteins (SEQ ID NOs: 54 and 55) at different concentrations, ranging from 100 to 0.002 nM, were added to the wells and incubated for 1 h at room temperature, followed by another wash step. Bound molecules under study were detected by incubation with 1 μg/mL recombinant hu4-1BB-His (biotinylated human 4-1BB with C-terminal polyhistidine tag, Sino Biological) in PBS-0.1% T-2% BSA for 1 h. This step was followed by a further wash step and incubation with 1:5000 diluted Extravidin-HRP in PBS-0.1% T-2% BSA. After an additional wash step, fluorogenic HRP substrate (QuantaBlu, Thermo) was added to each well and the fluorescence intensity was detected using a fluorescence microplate reader.
On the technique in general: ELISA stands for enzyme-linked immunosorbent assay.

The target of a further experiment is T4, hu4-1BB-Fc (R&D Systems) (human, UniProt Q07011 24-186).
T4 construct: Bought; also called human 4-1BB; not shown: human IgG Fc of the bought fusion
Description: SPR (Biacore 8K), hu4-1BB-Fc captured by anti-human IgG Fc; apparent value, 1:1 fit. In short, it runs like this: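 hu4-1BB-Fc at 0.3 μg/mL captured for 180 s on amine-coupled anti-human IgG Fc (CM5 chip). Analyte contact 180 s, dissociation 1200 s or 3000 s, 30 μL/min, 25° C. Double-referenced sensorgrams fitted to a 1:1 binding model.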
On the technique in general: In SPR one partner is held on a chip, and binding of the other changes the refractive index at the surface.

Experiment [6] has as its target T5, human GPC3 on HepG2 cells (human, UniProt P51654 25-554).
T5 construct: whole, on cells; Endogenous GPC3 of the tumor cell line; also called GPC3-positive tumor cell line HepG2; human GPC3-expressing HepG2 cells
Description: flow cytometry, HepG2 cells. The method, then: GPC3-positive tumor cell line HepG2 was cultured in Dulbecco's Modified Eagle's Medium ([…], Pan Biotech) supplemented with 10% Fetal Calf Serum (Sigma-Aldrich) and in cell culture flasks according to manufacturer's instruction (37° C., 5% CO₂ atmosphere).
(§2) 5×10⁴ cells per well were incubated for 1 h in ice-cold PBS containing 5% fetal calf serum (PBS-FCS). A dilution series of the tested multimeric proteins (SEQ ID NOs: 38-44 and 46-55), the 4-1BB-targeting lipocalin mutein as included in the multimeric proteins (SEQ ID NO: 64) or the GPC3-targeting lipocalin SEQ ID NO: 90 were added to the cells and incubated for 1 h on ice. Cells were washed twice with PBS and then incubated with a rabbit anti-NGAL or a goat anti-human IgG labeled with fluorescent dye Alexa 488 for 30 min on ice. Human IgG4 isotype (SEQ ID NOs: 29 and 30) and lipocalin mutein SEQ ID NO: 8 were tested as a negative control. Cells were subsequently washed and analyzed using iQue Flow cytometer (Intellicyte Screener). Mean geometric fluorescent signals were plotted and fitted with Graphpad software using nonlinear regression (shared bottom, four parameters, variable slope).

Experiment [7] has as its target T2, human 4-1BB on cells. Description: flow cytometry on CHO cells stably transfected with human 4-1BB, anti-NGAL detection, GeoMean BL1-H. The method, then: as §2
Target-specific binding of hexavalent trimeric proteins to human 4-1BB-, OX40- or PD-L1-expressing cells was assessed by flow cytometry as described in Example 5, using CHO cells stably transfected with human 4-1BB, human OX40 or human PD-L1 (Flp-In system; Life Technologies).

Experiment [8] deals with T6, recombinant hu4-1BB-His (human 4-1BB with a C-terminal polyhistidine tag, R&D Systems) (human, UniProt Q07011 24-186).
T6 construct: Bought; not shown: C-terminal polyhistidine tag
The experiment can be described thus: ELISA, hu4-1BB-His coated, detection anti-NGAL-HRP. In short, it runs like this: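 Plates coated with hu4-1BB-His (1 μg/mL, overnight, 4° C) and blocked with 2% BSA; test proteins at 100 to 0.002 nM bound 1 h at room temperature. Detection by anti-NGAL-HRP with fluorogenic substrate; EC₅₀ from 1:1 sigmoidal fit, slope fixed to one.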

T1 sequence (A9YYE7 entry or part of it limits assumed): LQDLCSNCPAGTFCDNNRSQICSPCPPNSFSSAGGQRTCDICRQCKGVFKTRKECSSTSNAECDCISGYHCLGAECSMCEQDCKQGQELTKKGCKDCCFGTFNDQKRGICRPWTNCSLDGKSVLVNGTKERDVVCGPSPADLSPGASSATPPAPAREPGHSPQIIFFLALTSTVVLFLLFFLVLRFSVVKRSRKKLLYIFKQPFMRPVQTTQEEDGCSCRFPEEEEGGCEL
T2 sequence (Q07011 24-255): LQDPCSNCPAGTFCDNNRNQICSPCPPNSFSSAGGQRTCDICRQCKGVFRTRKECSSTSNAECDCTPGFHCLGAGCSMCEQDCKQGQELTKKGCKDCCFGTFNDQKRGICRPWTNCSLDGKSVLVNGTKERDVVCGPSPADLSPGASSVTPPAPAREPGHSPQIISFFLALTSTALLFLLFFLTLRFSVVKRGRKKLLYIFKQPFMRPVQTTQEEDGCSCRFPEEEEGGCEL
T3 sequence (P51654 25-559 limits assumed): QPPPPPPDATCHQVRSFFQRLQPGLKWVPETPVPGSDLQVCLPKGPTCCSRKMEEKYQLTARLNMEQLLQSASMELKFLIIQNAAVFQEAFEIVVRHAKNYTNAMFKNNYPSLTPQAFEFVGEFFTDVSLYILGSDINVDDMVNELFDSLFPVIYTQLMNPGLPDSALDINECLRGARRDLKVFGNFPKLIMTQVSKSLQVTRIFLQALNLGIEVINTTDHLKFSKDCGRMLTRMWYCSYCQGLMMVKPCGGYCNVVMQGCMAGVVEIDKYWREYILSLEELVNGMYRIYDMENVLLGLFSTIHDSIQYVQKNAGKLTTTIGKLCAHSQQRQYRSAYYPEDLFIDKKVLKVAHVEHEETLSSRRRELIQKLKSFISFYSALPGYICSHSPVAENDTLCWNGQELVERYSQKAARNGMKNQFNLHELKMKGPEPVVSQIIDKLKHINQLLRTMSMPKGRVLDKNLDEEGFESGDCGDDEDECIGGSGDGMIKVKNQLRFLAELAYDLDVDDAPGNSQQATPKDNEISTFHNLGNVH
T5 sequence (P51654 25-554 limits assumed): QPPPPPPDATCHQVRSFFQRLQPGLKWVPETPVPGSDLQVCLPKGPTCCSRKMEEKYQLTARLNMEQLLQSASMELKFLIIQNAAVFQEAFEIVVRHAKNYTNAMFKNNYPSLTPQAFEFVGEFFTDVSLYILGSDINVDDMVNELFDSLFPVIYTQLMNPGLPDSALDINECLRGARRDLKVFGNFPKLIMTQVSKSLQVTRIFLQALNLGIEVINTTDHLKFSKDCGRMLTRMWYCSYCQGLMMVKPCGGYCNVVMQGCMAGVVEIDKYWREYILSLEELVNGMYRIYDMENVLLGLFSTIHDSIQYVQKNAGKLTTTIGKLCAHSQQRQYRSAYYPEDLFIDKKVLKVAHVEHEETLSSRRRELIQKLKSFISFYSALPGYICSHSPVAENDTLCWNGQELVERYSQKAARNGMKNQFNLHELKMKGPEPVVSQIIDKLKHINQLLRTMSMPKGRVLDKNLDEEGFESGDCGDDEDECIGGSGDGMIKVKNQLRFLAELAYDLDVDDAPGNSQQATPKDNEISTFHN

B1: bispecific multimeric protein SEQ ID NO: 54 (designed binder)
chain: QVQLVQSGAEVKKPGASVKVSCKASGYTFTDYEMHWVRQAPGQGLEWMGALDPKTGDTAYSQKFKGRVTLTADKSTSTAYMELSSLTSEDTAVYYCTRFYSYTYWGQGTLVTLVSSGGGGSGGGGSGGGGSGGGGSDVVMTQSPLSLPVTPGEPASISCRSSQSLVHSNRNTYLHWYLQKPGQSPQLLIYKVSNRFSGVPDRFSGSGSGTDFTLKISRVEAEDVGVYYCSQNTHVPPTFGQGTKLEIKGGGGSGGGGSGGGGSGVRLWATRQAMLGQVHEVPEGWLIFVAEQEELYVRVQNGFRKVQLEARTPLGGGGSGGGGSGGGGSQDSTSDLIPAPPLSKVPLQQNFQDNQFHGKWYVVGQAGNIRLREDKDPIKMMATIYELKEDKSYDVTMVKFDDKKCMYDIWTFVPGSQPGEFTLGKIKSFPGHTSSLVRVVSTNYNQHAMVFFKFVFQNREEFYITLYGRTKELTSELKENFIRFSKSLGLPENHIVFPVPIDQCIDGGGSGGAPEQKLISEEDLGSHHHHHHHHHH
Consider B1, for which the EC50 in experiment [1] came to 5.99 nM; in experiment [3], 0.15 nM; in the experiment with human 4-1BB on cells [4] it was 5.49 nM; in [5], 0.63 nM; in experiment [6], 3.07 nM. Further, the “EC50 [nM], 4-1BB bioassay (NFκB-luc2/4-1BB Jurkat luminescence), with HepG2 cells” value (“EC50 [nM], 4-1BB bioassay” for short) with human 4-1BB on cells [2] was 0.38 nM. Moreover, the Kd with hu4-1BB-Fc (R&D Systems) worked out at 0.26 nM. For the same molecule, the koff with hu4-1BB-Fc (R&D Systems) worked out at 1.99e-05 s⁻¹. Besides, the kon with hu4-1BB-Fc (R&D Systems) was 77900 M⁻¹ s⁻¹.

B2: bispecific multimeric protein SEQ ID NO: 55 (designed binder)
chain: QDSTSDLIPAPPLSKVPLQQNFQDNQFQGKWYVVGRAGNVGLREDKDPPKMWATIYELKEDKSYDVTNVRFARKKCTYSIGTFVPGSQPGEFTLGQIKSEPGGTANLVRVVSTNYNQHAMVFFKEVYQNREIFFIILYGRTKELTSELKENFIRFSKSLGLPENHIVFPVPIDQCIDGGGGGSGGGGSGGGGSGVRLWATRQAMLGQVHEVPEGWLIFVAEQEELYVRVQNGFRKVQLEARTPLGGGGSGGGGSGGGGSQDSTSDLIPAPPLSKVPLQQNFQDNQFHGKWYVVGQAGNIRLREDKDPIKMMATIYELKEDKSYDVTMVKFDDKKCMYDIWTFVPGSQPGEFTLGKIKSFPGHTSSLVRVVSTNYNQHAMVFFKFVFQNREEFYITLYGRTKELTSELKENFIRFSKSLGLPENHIVFPVPIDQCIDGGGSGGAPEQKLISEEDLGSHHHHHHHHHH
On to B2, for which the EC50 in [1] amounted to 6.62 nM; in experiment [3] it was 0.1 nM; with human 4-1BB on cells [4], 4.08 nM; in experiment [5], 1.3 nM; in experiment [6], 2.98 nM. Further, the “EC50 [nM], 4-1BB bioassay” value with human 4-1BB on cells [2] turned out to be 0.69 nM. Besides, the Kd with hu4-1BB-Fc (R&D Systems) came to 0.71 nM. Also, in the experiment with hu4-1BB-Fc (R&D Systems), the koff stood at 5.99e-05 s⁻¹. In addition, the kon in the experiment with hu4-1BB-Fc (R&D Systems) stood at 84000 M⁻¹ s⁻¹.

B3: multimeric protein SEQ ID NO: 52 (designed binder)
chain: QDSTSDLIPAPPLSKVPLQQNFQDNQFHGKWYVVGQAGNIRLREDKDPIKMMATIYELKEDKSYDVTMVKFDDKKCMYDIWTFVPGSQPGEFTLGKIKSFPGHTSSLVRVVSTNYNQHAMVFFKFVFQNREEFYITLYGRTKELTSELKENFIRFSKSLGLPENHIVFPVPIDQCIDGGGGGSGGGGSGGGGSQDSTSDLIPAPPLSKVPLQQNFQDNQFHGKWYVVGQAGNIRLREDKDPIKMMATIYELKEDKSYDVTMVKFDDKKCMYDIWTFVPGSQPGEFTLGKIKSFPGHTSSLVRVVSTNYNQHAMVFFKFVFQNREEFYITLYGRTKELTSELKENFIRFSKSLGLPENHIVFPVPIDQCIDGGGGGSGGGGSGGGGSGVRLWATRQAMLGQVHEVPEGWLIFVAEQEELYVRVQNGFRKVQLEARTPLGGSGGAPEQKLISEEDLGSHHHHHHHHHH
In the case of B3, in experiment [1], it took 3.36 nM to reach a half-maximal effect (EC50). Moreover, in the experiment with human 4-1BB on cells [2], the “EC50 [nM], 4-1BB bioassay” value is 1 nM. In addition, in the experiment with human 4-1BB on cells [7], the “EC50 (read off the curve)” value is about 2 nM. Also, in the experiment with human 4-1BB on cells [4], a half-maximal effect (EC50) was put at 1.5 nM. For the same molecule, in the experiment with hu4-1BB-Fc (R&D Systems), the Kd was 0.24 nM, the koff was found to be 2.19e-05 s⁻¹ and the kon was found to be 90400 M⁻¹ s⁻¹. Also, in experiment [8], the EC50 was 0.12 nM.

Broadly, the EC50 is the concentration needed to bring the measured effect to its halfway point. One may read the koff as the rate constant with which the complex falls apart. In general, kon refers to the rate constant with which the complex forms. A word on the EC50 (read off the curve): it is the concentration needed to bring the measured effect to its halfway point. High values mean weaker potency, low ones greater potency.
